Each block holds one molecule with its values, some of them ahead of it.
Assays:
[1] = molecular target: human cMET-Fc fusion protein (extracellular domain of human cMET fused to human Fc) (human) (UniProt P08581); test: SPR with hMet-Fc
[2] = molecular target: T1, human cMET (ELISA antigen) (human, UniProt P08581 25-932, limits assumed); test: ELISA on human cMET, relative to parental P3D12
T1 construct: also called hMET

[3] = molecular target: T2, rat cMET-Fc (rat, UniProt P97523 25-935); test: SPR, rMET-Fc
T2 construct: Construct named only as rMET-Fc; also called rMET-Fc; not shown: Fc part

[4] = molecular target: T3, human cMET-Fc fusion protein (extracellular domain of human cMET fused to human Fc) (human, UniProt P08581 25-932); test: SPR, hMET-Fc
T3 construct: Mature cMET is cleaved into alpha and beta subunits; also called hMET-Fc; hMet-Fc

[5] = molecular target: T4, mutant cMET (E168D) Fc recombinant fusion protein (human, UniProt P08581 25-932); test: binding ELISA, plate-coated E168D cMET-Fc, goat anti-human IgG (H+L)-HRP (FIG. 16)
T4 construct: also called E168D cMET; E168D cMET extracellular domain fused to human IgG1 Fc; not shown: Fc of human IgG1
Description: The E168D mutation is a somatic mutation found in small cell lung cancer (SCLC). The mutation is located in the Sema domain and leads to constitutive activation of the cMET receptor. Abundance of somatic mutations of cMET are very low. E168D occurs in 0.8% to 3% of SCLC patients. A binding ELISA was performed with human cMET or E168D cMET extracellular domains fused to human IgG1 Fc. cMET proteins were coated on a plate overnight and the samples titrated and detected with a goat anti-human IgG (H+L)-HRP. EC₅₀s were determined using sigmoidal dose response fit.

[6] = molecular target: T5, rat cMET (ELISA antigen) (rat, UniProt P97523 25-935, limits assumed); test: ELISA on rat cMET, relative to parental P3D12
T5 construct: also called rMET

[7] = molecular target: T6, Recombinant Human c-Met-10X His (human, UniProt P08581 25-932); test: cMET binding ELISA, plate-bound human cMET (FIGS. 24A, 24B)
T6 construct: In-house reagent (Lot #140924TA); not shown: 10X His tag
Description: The antibody drug conjugates were tested at increasing concentrations (x-axis, concentration of antibody-drug conjugate (μg/ml)) for their ability to bind plate-bound human cMET. Relative binding strength is indicated by luminescence (y-axis).
PMID: 5257969. The payload of chemical formula II was site-specifically conjugated to each of the mutated cysteine residues using Maleimide chemistry. The quality and extent of conjugation was assessed by a determination of total recovery, aggregate content, monomer content and drug-antibody ratio (DAR).

[8] = molecular target: T3, human cMET-Fc fusion protein …; test: SPR with hMet-Fc
[9] = molecular target: mouse cMET (ELISA antigen) (mouse, UniProt P16056 25-931, limits assumed); test: ELISA, cross-reactivity, mouse cMET
[10] = molecular target: T5, rat cMET (ELISA antigen); test: ELISA, cross-reactivity, rat cMET

T3 sequence (P08581 25-932): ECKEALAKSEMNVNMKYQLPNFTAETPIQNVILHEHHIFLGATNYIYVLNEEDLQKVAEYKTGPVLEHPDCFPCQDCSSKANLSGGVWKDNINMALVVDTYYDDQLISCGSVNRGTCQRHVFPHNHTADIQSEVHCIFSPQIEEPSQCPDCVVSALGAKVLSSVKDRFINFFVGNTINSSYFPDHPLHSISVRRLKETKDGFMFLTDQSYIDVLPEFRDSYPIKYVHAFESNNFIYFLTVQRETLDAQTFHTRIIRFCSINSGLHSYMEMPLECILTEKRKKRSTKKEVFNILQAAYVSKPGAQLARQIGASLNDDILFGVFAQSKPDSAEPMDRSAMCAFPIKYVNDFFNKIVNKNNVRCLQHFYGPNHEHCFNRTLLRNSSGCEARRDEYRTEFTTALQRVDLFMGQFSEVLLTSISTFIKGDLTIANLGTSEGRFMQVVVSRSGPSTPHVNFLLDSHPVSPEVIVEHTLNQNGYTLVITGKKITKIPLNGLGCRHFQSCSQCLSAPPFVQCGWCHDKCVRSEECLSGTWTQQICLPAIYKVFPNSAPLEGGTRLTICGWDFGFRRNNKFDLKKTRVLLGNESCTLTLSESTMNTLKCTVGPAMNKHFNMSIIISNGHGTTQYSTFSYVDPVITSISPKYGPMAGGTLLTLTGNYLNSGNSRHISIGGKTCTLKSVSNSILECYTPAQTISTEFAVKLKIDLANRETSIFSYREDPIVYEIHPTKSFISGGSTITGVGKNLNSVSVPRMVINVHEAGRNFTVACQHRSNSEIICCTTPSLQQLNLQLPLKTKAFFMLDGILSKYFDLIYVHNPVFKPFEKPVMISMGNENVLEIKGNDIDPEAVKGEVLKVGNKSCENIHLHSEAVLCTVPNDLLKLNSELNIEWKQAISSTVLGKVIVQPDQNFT
T5 sequence (P97523 25-935 limits assumed): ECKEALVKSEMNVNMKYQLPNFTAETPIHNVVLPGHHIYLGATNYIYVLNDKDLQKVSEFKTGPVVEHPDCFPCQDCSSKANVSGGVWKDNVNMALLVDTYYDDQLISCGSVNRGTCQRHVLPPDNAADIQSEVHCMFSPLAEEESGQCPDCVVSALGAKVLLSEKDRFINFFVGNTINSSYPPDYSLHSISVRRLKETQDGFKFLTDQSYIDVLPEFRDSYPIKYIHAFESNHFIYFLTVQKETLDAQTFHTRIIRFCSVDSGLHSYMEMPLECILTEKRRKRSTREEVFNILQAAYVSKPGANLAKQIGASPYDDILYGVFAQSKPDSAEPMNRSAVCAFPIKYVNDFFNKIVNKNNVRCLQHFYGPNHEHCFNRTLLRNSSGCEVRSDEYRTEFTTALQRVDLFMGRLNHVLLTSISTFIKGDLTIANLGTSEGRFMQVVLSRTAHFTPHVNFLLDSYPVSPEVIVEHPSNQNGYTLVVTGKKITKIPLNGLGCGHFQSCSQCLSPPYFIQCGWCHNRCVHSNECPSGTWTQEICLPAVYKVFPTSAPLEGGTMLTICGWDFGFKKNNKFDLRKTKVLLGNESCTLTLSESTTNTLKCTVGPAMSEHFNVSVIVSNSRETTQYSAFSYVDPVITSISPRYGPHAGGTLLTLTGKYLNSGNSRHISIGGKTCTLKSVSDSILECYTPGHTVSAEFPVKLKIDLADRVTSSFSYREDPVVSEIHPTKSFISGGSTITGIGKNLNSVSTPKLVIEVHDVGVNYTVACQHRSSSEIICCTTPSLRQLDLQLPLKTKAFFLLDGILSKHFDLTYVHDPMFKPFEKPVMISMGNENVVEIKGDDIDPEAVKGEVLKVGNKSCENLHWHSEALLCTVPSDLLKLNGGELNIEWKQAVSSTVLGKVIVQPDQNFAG
T4 sequence (P08581 25-932 E168D): as the sequence (P08581 25-932) above, with E144D counted along it
T1 sequence (P08581 25-932 limits assumed): as the sequence (P08581 25-932) above
human cMET-Fc fusion protein (extracellular domain of human cMET fused to human Fc) (human), sequence (P08581 25-932): as above
T6 sequence (P08581 25-932 limits assumed): as the sequence (P08581 25-932) above
T2 sequence (P97523 25-935 limits assumed): as the sequence (P97523 25-935 limits assumed) above
mouse cMET (ELISA antigen), sequence (P16056 25-931 limits assumed): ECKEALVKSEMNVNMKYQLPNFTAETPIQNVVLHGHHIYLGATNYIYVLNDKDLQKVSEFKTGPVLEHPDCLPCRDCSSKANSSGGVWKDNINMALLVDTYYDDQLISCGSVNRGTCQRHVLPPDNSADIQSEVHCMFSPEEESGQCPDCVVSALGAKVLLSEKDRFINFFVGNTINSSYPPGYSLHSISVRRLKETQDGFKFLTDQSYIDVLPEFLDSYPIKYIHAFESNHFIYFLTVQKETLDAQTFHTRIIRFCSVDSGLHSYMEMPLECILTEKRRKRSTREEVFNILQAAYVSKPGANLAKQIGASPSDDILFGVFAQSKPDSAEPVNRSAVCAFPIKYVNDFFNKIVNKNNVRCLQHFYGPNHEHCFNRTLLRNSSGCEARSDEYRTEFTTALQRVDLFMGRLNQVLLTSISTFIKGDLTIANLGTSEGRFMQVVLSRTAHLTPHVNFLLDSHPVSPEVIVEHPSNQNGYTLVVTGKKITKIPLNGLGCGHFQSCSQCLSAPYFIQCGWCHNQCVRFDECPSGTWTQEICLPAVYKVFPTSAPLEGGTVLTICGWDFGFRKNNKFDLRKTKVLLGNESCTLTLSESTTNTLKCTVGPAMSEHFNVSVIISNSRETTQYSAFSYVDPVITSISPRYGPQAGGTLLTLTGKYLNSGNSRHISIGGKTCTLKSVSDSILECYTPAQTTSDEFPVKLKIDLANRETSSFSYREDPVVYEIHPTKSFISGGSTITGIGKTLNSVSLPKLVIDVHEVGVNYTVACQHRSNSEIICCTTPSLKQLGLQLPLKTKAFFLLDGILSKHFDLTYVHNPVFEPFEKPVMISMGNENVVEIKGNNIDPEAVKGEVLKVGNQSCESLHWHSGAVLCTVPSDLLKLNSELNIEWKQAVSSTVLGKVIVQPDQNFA

Molecule: 5D5 (antibody)
- Kd [1]: 800 pM

B3: F6AP8E2 (antibody, V domains shown)
VH: EVQLQQSGAELVRPGALVKLSCKASGFNINDYFMHWVKQRPEQGLEWIGWIDPENGNTIYDPKFQGKASITADTSSNTAYLQLSSLTSEDTAVYYCARGGNYLRESYYYAMDYWGQGTSVTVSS
VL: DIVMTQSPKSMSMSVGERVTLSCKASENVGTYVSWYQQKPDQSPKLLIYGASNRYTGVPDRFTGSGSATDFTLTISSVQAEDLADYHCGQSYSYPLTFGAGTKLELKR
notes: Mouse monoclonal antibody
- Kd [8]: 160 pM
- binding result [9]: no binding
- binding result [10]: no binding

More lines, now with the values ahead:

- ELISA hMET vs parental [2]: 0.7 fold vs parental
- Kd [3]: 7000 pM
- Kd [4]: 300 pM
- binding result [5]: binds
- ELISA rMET vs parental [6]: 0.9 fold vs parental
B1: hD12 (humanized anti-cMET antibody of IgG2 isotype, VH-cdr SEQ ID NO: 108 + VL-fra SEQ ID NO: 47) (antibody)
heavy: QVQLVQSGAEVKKPGASVKVSCKASGYTFTSYWMHWVKQAPGQGLDWIGYIKPSTDNTEYNQKFKDKATLTADKSTSTAYMELSSLRSEDTAVYYCARSYGNYPLMDYWGQGTTVTVSSASTKGPSVFPLAPCSRSTSESTAALGCLVKDYFPEPVTVSWNSGALTSGVHTFPAVLQSSGLYSLSSVVTVPSSNFGTQTYTCNVDHKPSNTKVDKTVERKCCVECPPCPAPPVAGPSVFLFPPKPKDTLMISRTPEVTCVVVDVSHEDPEVQFNWYVDGVEVHNAKTKPREEQFNSTFRVVSVLTVVHQDWLNGKEYKCKVSNKGLPAPIEKTISKTKGQPREPQVYTLPPSREEMTKNQVSLTCLVKGFYPSDIAVEWESNGQPENNYKTTPPMLDSDGSFFLYSKLTVDKSRWQQGNVFSCSVMHEALHNHYTQKSLSLSPGK
light: QIVLTQSPAILSLSPGERATLSCSASSSVTSNYLYWYQQKPGSSPKLLIYSTSNLASGVPARFSGSGSGTSYTLTISSLEAEDAASYFCHQWSSYPPTFGSGTKLEIKRTVAAPSVFIFPPSDEQLKSGTASVVCLLNNFYPREAKVQWKVDNALQSGNSQESVTEQDSKDSTYSLSSTLTLSKADYEKHKVYACEVTHQGLSSPVTKSFNRGEC
notes: also called G2ckf

- binding result [7]: binds
B2: hD12-T289C-II (hD12 T289C variant site-specifically conjugated to the payload of chemical formula II) (antibody, human IgG2, kappa)
heavy: QVQLVQSGAEVKKPGASVKVSCKASGYTFTSYWMHWVKQAPGQGLDWIGYIKPSTDNTEYNQKFKDKATLTADKSTSTAYMELSSLRSEDTAVYYCARSYGNYPLMDYWGQGTTVTVSSASTKGPSVFPLAPCSRSTSESTAALGCLVKDYFPEPVTVSWNSGALTSGVHTFPAVLQSSGLYSLSSVVTVPSSNFGTQTYTCNVDHKPSNTKVDKTVERKCCVECPPCPAPPVAGPSVFLFPPKPKDTLMISRTPEVTCVVVDVSHEDPEVQFNWYVDGVEVHNAKCKPREEQFNSTFRVVSVLTVVHQDWLNGKEYKCKVSNKGLPAPIEKTISKTKGQPREPQVYTLPPSREEMTKNQVSLTCLVKGFYPSDIAVEWESNGQPENNYKTTPPMLDSDGSFFLYSKLTVDKSRWQQGNVFSCSVMHEALHNHYTQKSLSLSPGK
light: QIVLTQSPAILSLSPGERATLSCSASSSVTSNYLYWYQQKPGSSPKLLIYSTSNLASGVPARFSGSGSGTSYTLTISSLEAEDAASYFCHQWSSYPPTFGSGTKLEIKRTVAAPSVFIFPPSDEQLKSGTASVVCLLNNFYPREAKVQWKVDNALQSGNSQESVTEQDSKDSTYSLSSTLTLSKADYEKHKVYACEVTHQGLSSPVTKSFNRGEC
modifications: payload of chemical formula II on Cys 289 (EU numbering), maleimide chemistry
notes: Antibody-drug conjugate, IgG2

Source: patent publication US20250032632A1 (published 2025)
